T1: rhCEACAM5-Fc (human, UniProt P06731 35-685)
T1 construct: Bought staining reagent; construct limits and Fc not described; also called primary rhCEACAM5-Fc antibody; CEA.hFc protein; not shown: Fc tag detected with anti-IgG-Fc-PE
T1 sequence (looked up): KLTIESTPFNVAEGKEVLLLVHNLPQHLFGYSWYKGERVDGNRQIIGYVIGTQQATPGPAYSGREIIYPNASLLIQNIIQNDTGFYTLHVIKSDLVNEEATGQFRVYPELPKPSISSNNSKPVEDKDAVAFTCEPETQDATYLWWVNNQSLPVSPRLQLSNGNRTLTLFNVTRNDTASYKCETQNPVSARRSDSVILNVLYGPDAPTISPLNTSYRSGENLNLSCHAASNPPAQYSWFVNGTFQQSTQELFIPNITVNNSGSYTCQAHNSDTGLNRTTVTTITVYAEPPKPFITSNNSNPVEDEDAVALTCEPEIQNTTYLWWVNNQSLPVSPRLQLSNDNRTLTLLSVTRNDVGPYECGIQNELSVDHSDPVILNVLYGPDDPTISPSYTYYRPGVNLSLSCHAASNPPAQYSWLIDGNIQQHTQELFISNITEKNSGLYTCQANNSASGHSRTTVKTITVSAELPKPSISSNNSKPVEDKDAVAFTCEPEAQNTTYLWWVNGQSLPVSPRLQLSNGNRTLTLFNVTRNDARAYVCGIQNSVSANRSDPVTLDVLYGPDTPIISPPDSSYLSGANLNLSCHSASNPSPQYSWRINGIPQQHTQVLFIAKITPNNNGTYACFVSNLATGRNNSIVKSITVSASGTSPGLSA


Experiments:
[1] = molecular target: T1, rhCEACAM5-Fc; experiment: flow cytometry of transduced T cells: CoStAR detected with primary rhCEACAM5-Fc and secondary anti-IgG-Fc-PE (FIG. 26)
[2] = molecular target: Human folate receptor alpha (FolR) on cells (human) (UniProt P15328); experiment: cell-based or functional assay
Chain of Human folate receptor alpha (FolR) on cells (human) (P15328 25-234): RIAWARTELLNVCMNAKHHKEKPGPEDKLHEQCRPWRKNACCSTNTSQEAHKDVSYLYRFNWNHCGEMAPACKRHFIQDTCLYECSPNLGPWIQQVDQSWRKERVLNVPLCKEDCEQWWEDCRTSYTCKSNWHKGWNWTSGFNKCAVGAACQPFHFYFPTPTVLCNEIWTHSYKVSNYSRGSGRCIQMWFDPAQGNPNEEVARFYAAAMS

| binding result [1] | enhancement of Bcl-XL induction in the presence of OvCAR-OKT3 [2] [%] | mean fold expansion of transduced T cells over 21 days with OvCAR-OKT3 (CA125+/Folate receptor+/CEA-) [2] [fold] | Binder | also measured |
| --- | --- | --- | --- | --- |
| binds |  |  | anti-CEA CoStAR CTP244 (OSM1 signal peptide, hMFE23 scFv, AAAGSGGSG linker, CD28 (trunc IIH) spacer, CD28 TM, CD28.CD40) (receptor, On transduced human T cells) QVKLEQSGAEVVKPGASVKLSCKASGFNIKDSYMHWLRQGPGQRLEWIGWIDPENGDTEYAPKFQGKATFTTDTSANTAYLGLSSLRPEDTAVYYCNEGTPTGPYYFDYWGQGTLVTVSSGGGGSGGGGSGGGGSENVLTQSPSSMSASVGDRVNIACSASSSVSYMHWFQQKPGKSPKLWIYSTSNLASGVPSRFSGSGSGTDYSLTISSMQPEDAATYYCQQRSSYPLTFGGGTKLEIKAAAGSGGSGIIHVKGKHLCPSPLFPGPSKPFWVLVVVGGVLACYSLLVTVAFIIFWVRSKRSRLLHSDYMNMTPRRPGPTRKHYQPYAPPRDFAAYRSKKVAKKPTNKAPHPKQEPQEINFPDDLPGSNTAAPVQETLHGCQPVTQEDGKESRISVQERQ |  |
| binds |  |  | anti-CEA CoStAR CTP232 (OSM1 signal peptide, hMFE23 scFv, AAAGSGGSG linker, CD8 EC spacer, CD8 TM, CD28.CD40) (receptor, On transduced human T cells) QVKLEQSGAEVVKPGASVKLSCKASGFNIKDSYMHWLRQGPGQRLEWIGWIDPENGDTEYAPKFQGKATFTTDTSANTAYLGLSSLRPEDTAVYYCNEGTPTGPYYFDYWGQGTLVTVSSGGGGSGGGGSGGGGSENVLTQSPSSMSASVGDRVNIACSASSSVSYMHWFQQKPGKSPKLWIYSTSNLASGVPSRFSGSGSGTDYSLTISSMQPEDAATYYCQQRSSYPLTFGGGTKLEIKAAAGSGGSGFVPVFLPAKPTTTPAPRPPTPAPTIASQPLSLRPEACRPAAGGAVHTRGLDFACDIYIWAPLAGTCGVLLLSLVITLYCNHRNRSKRSRLLHSDYMNMTPRRPGPTRKHYQPYAPPRDFAAYRSKKVAKKPTNKAPHPKQEPQEINFPDDLPGSNTAAPVQETLHGCQPVTQEDGKESRISVQERQ |  |

Continued, binder first:

| Binder | binding result [1] | enhancement of Bcl-XL induction in the presence of OvCAR-OKT3 [2] [%] | mean fold expansion of transduced T cells over 21 days with OvCAR-OKT3 (CA125+/Folate receptor+/CEA-) [2] [fold] | also measured |
| --- | --- | --- | --- | --- |
| MOV19.CD28.CD40 CoStAR (receptor, part only; not given: tag, linker, CD28 and CD40 parts, part only) chain, part: QVQLQQSGAELVKPGASVKISCKASGYSFTGYFMNWVKQSHGKSLEWIGRIHPYDGDTFYNQNFKDKATLTVDKSSNTAHMELLSLTSEDFAVYYCTRYDGSRAMDYWGQGTTVTVSSGGGGSGGGGSGGGGSDIELTQSPASLAVSLGQRAIISCKASQSVSFAGTSLMHWYHQKPGQQPKLLIYRASNLEAGVPTRFSGSGSKTDFTLNIHPVEEEDAATYYCQQSREYPYTFGGGTKLEIK |  | 35 | 1300 | CD137 expression [2]: 50%; CD137 expression of CoStAR+ TIL after coculture with FolR high expressing tumour digest [2]: 50%; CD137 expression of CoStAR+ TIL after coculture with FolR low expressing tumour digest [2]: > 20%; IL-2 production [2]: 5%; TNFα production [2]: 15% |
| MOV19.CD28 CoStAR (receptor, part only; not given: tag, linker and CD28 part, part only) chain, part: QVQLQQSGAELVKPGASVKISCKASGYSFTGYFMNWVKQSHGKSLEWIGRIHPYDGDTFYNQNFKDKATLTVDKSSNTAHMELLSLTSEDFAVYYCTRYDGSRAMDYWGQGTTVTVSSGGGGSGGGGSGGGGSDIELTQSPASLAVSLGQRAIISCKASQSVSFAGTSLMHWYHQKPGQQPKLLIYRASNLEAGVPTRFSGSGSKTDFTLNIHPVEEEDAATYYCQQSREYPYTFGGGTKLEIK |  | 20 | 187 | enhancement of IL-2 induction in the presence of OvCAR-OKT3 [2]: 20% |
